Reference: EP4296276A1 (Forschungszentrum Jülich GmbH, dated 2023)
Ends that are not written are not given here.

What was measured:
Test in all cases: BLI (Octet), peptide immobilised, protein 2 µM; KD = koff/kon
[1] = molecular target: T1, DISC1 C-region (residues 691-836) mutant S713E (human, UniProt Q9NRI5 691-836)
T1 construct: range 691-836; Expression and tag are described only for the WT construct (N-terminal His6)
T1 sequence (looked up): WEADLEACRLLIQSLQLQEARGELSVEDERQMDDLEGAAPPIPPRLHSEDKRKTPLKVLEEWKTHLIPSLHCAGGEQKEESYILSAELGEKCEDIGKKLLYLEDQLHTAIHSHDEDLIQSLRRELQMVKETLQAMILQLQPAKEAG

[2] = molecular target: T2, wild-type (WT) human DISC1 C-region (residues 691-836) (human, UniProt Q9NRI5 691-836)
T2 construct: range 691-836; Expressed in E. coli as an N-terminal His6 fusion construct, purified on Co2+-NTA and by size exclusion; Used in solution at 2 µM in BLI; also called WT C-region; C-region of DISC1; not shown: N-terminal His6 fusion tag
T2 sequence (looked up): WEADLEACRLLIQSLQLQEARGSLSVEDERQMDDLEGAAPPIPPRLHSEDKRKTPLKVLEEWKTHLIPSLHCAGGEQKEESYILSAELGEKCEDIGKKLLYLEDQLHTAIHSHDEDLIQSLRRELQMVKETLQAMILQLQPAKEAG

[3] = molecular target: T3, DISC1 C-region (residues 691-836) mutant S704C (human, UniProt Q9NRI5 691-836)
T3 construct: range 691-836; Expression and tag are described only for the WT construct (N-terminal His6)
T3 sequence (looked up): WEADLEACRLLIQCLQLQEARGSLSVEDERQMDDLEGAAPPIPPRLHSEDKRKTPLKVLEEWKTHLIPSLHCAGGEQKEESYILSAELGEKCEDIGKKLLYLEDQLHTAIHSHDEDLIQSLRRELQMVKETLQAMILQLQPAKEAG

[4] = molecular target: DISC1 C-region mutant L807-frameshift (human) (UniProt Q9NRI5)

B1: Flo1 (FPHPTLKHREFMRHVS-NH2) (peptide)
peptide: FPHPTLKHREFMRHVS-NH2
notes: Phage display hit selected on oligomeric WT C-region; Immobilised on the BLI sensor by EDC/NHS coupling
With B1 the Kd [1] was 70 nM, the Kd [2] was 100 nM and the Kd [3] was 160 nM.

IWAGHIHDWWRRGQGS-NH2 (not fully specified; printed as IWAGHIHDWWRRGQGS-NH2) [Flm1 (…-NH2)] was tested, and the Kd [4] was 200 nM.

B2: Flm1 (IWAGHIHDWWRRGQGS-NH2) (peptide)
peptide: IWAGHIHDWWRRGQGS-NH2
modifications: not fully specified; printed as IWAGHIHDWWRRGQGS-NH2
notes: Phage display hit selected on monomeric WT C-region; Immobilised on the BLI sensor by EDC/NHS coupling
In the case of B2, the Kd [1] is reported as 80 nM, the Kd [2] is reported as 150 nM and the Kd [3] is reported as 80 nM.

AWQHHELKWKQYQGWR-NH2 [Flm2 (…-NH2)] gave a Kd [4] of 110 nM.

WNHPMNIRSISWHKDS-NH2 [Flm6 (…-NH2)] showed a Kd [4] of 530 nM.

For TSGVPWWKFQQQVRRT-NH2 [Flo11 (…-NH2)], the Kd [4] was 160 nM.

B3: Flm9 (PWYNAPHSHGFWGSGR-NH2) (peptide)
peptide: PWYNAPHSHGFWGSGR-NH2
notes: as for B2
With B3 the Kd [1] was 1500 nM, the Kd [2] was 3200 nM and the Kd [3] was 1490 nM.

B4: Flo11 (TSGVPWWKFQQQVRRT-NH2) (peptide)
peptide: TSGVPWWKFQQQVRRT-NH2
notes: as for B1
B4 showed a Kd [1] of 890 nM, a Kd [2] of 3680 nM and a Kd [3] of 1060 nM.

B5: Flo3 (HISMQTYKWSQWAKHQ-NH2) (peptide)
peptide: HISMQTYKWSQWAKHQ-NH2
notes: as for B1
B5 showed a Kd [1] of 420 nM, a Kd [2] of 2620 nM and a Kd [3] of 270 nM.

For GIKSLISNKMHTQWNY-NH2 [Flm5 (…-NH2)], the Kd [4] was 110 nM.

B6: Flo8 (KYTAIHEWYKAHNGGA-NH2) (peptide)
peptide: KYTAIHEWYKAHNGGA-NH2
notes: as for B1
B6 showed a Kd [1] of 460 nM, a Kd [2] of 2620 nM and a Kd [3] of 1040 nM.

KYTAIHEWYKAHNGGA-NH2 [Flo8 (…-NH2)] showed a Kd [4] of 170 nM.

B7: Flm11 (HKLHHLLKWENQHKVE-NH2) (peptide)
peptide: HKLHHLLKWENQHKVE-NH2
notes: as for B2
Binder B7 has a Kd [1] of 420 nM, a Kd [2] of 1270 nM and a Kd [3] of 720 nM.

For FPHPTLKHREFMRHVS-NH2 [Flo1 (…-NH2)], the Kd [4] was 40 nM.

Binder QDNPWWHEHKHWKSWP-NH2 [Flo5 (…-NH2)] has a Kd [4] of 270 nM.

B8: Flo5 (QDNPWWHEHKHWKSWP-NH2) (peptide)
peptide: QDNPWWHEHKHWKSWP-NH2
notes: as for B1
B8 was tested, and the Kd [1] was 210 nM, the Kd [2] was 250 nM and the Kd [3] was 360 nM.

Work on PWYNAPHSHGFWGSGR-NH2 [Flm9 (…-NH2)] yielded a Kd [4] of 390 nM.

B9: Flm2 (AWQHHELKWKQYQGWR-NH2) (peptide)
peptide: AWQHHELKWKQYQGWR-NH2
notes: as for B2
B9 showed a Kd [1] of 220 nM, a Kd [2] of 640 nM and a Kd [3] of 150 nM.

B10: Flm6 (WNHPMNIRSISWHKDS-NH2) (peptide)
peptide: WNHPMNIRSISWHKDS-NH2
notes: as for B2
For B10, the Kd [1] was 1070 nM, the Kd [2] was 2010 nM and the Kd [3] was 2240 nM.

For HKLHHLLKWENQHKVE-NH2 [Flm11 (…-NH2)], the Kd [4] was 540 nM.

B11: Flo6 (SNWHPRHFFMSPSSPQ-NH2) (peptide)
peptide: SNWHPRHFFMSPSSPQ-NH2
notes: as for B1
With B11 the Kd [1] was 460 nM, the Kd [2] was 2360 nM and the Kd [3] was 720 nM.

B12: Flm5 (GIKSLISNKMHTQWNY-NH2) (peptide)
peptide: GIKSLISNKMHTQWNY-NH2
notes: as for B2
B12 showed a Kd [1] of 80 nM, a Kd [2] of 640 nM and a Kd [3] of 150 nM.

In the case of HISMQTYKWSQWAKHQ-NH2 [Flo3 (…-NH2)], the Kd [4] is reported as 400 nM.

In the case of SNWHPRHFFMSPSSPQ-NH2 [Flo6 (…-NH2)], the Kd [4] is reported as 170 nM.
